Laboratory results published in patent publication US20090155250A1 (US Dept. of Health and Human Services, published 2009).

Assays:
[1] = target: T1, BSA (UniProt P02769 25-607); assay: ELISA, wells coated with the unrelated protein, IgG titrated
T1 construct: Unrelated control protein

[2] = target: T1, BSA; assay: ELISA, protein coated on wells

T1 sequence (P02769 25-607 limits assumed): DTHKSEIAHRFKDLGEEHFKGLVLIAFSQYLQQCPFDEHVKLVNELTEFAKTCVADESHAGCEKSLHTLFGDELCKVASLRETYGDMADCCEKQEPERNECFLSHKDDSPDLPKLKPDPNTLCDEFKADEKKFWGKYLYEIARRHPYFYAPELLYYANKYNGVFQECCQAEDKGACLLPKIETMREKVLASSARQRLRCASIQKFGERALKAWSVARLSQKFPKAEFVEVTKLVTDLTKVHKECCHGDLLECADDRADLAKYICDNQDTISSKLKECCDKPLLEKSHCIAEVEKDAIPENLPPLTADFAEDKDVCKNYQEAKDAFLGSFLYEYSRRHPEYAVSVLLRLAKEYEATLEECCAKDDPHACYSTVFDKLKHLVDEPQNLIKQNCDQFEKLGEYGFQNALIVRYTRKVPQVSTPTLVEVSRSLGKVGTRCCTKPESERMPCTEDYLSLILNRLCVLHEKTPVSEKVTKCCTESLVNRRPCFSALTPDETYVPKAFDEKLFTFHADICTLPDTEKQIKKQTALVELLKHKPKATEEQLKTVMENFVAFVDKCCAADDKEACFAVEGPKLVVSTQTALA

| Binder | binding result [1] | binding result [2] |
| --- | --- | --- |
| chimpanzee/human anti-B5 MAb 8AH8AL (antibody, V domains shown, also called anti-B5 8AH8AL; Anti-B5 8AH8AL) VH: EVQLLESGGGLIKPGGSLRLSCAASGFIFRDYNINWVRQAPGKGLEWLGFIRTRASGRSTEYSASVKGRFTISRDDSKNIAYLHINSLKMEDTAVYYCAKKGDSYYYMDFWGKGTAVTVS VL: ELALTQPASVSGSPGQSITISCTGGRSDLGDSNFVSWYQQYPGKAPKLLIYQVNKRPSGVPDRFSASKSANTASLTISGLQTEDEADYFCSSYTTTSTYVFGIGTKVVVLG | no binding (tested: 10^4 ng/ml) |  |
| chimpanzee/human anti-B5 MAb 8AH7AL (antibody, V domains shown, also called anti-B5 8AH7AL) VH: EVQLLESGGGLIKPGGSLRLSCAASGFIFRDYNINWVRQAPGKGLEWLGFIRTRASGRSTEYSASVKGRFTISRDDSKNIAYLHINSLKMEDTAVYYCAKKGDSYYYMDFWGKGTAVTVS VL: ELALTQPPSVSGSPGQSITISCTGTSSDVGGHNGVSWYQQYPGKAPKVMIYEVNKRPSGVSNRLSGSKSGNTASLTISGLQAEDEGDYYCSSYRNGGSVVFGGGTKLTVLG |  | no binding |
